According to patent US20190270826A1:
“And” between values parts separate entries of the source, which are not always exact repeats. Equal values may be shown once.

Assays:
human FcγRI (human) = human FcγRI (human) (UniProt P12314); assay: AlphaScreen competition, human FcγRI (n=1); displaced: biotinylated control mAb B21M hIgG1 AlaAla; pH 7.2
human FcRn (human) = human FcRn (human) (UniProt P55899); assay: AlphaScreen competition, human FcRn (n=1); displaced: biotinylated control mAb B21M WT IgG1 (m27); pH 6.0
Sequence of human FcRn (human) (P55899 24-297 limits assumed, form in doubt, chain 1 of 2): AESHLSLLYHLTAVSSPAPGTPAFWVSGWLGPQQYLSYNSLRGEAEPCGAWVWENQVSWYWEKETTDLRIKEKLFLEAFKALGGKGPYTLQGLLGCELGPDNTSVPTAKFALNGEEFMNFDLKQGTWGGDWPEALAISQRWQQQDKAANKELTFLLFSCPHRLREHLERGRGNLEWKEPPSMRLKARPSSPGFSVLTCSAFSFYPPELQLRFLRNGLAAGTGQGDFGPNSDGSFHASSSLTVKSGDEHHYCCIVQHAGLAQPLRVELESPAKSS
Sequence of human FcRn (human) (chain, as listed by the source limits assumed, form in doubt, chain 2 of 2): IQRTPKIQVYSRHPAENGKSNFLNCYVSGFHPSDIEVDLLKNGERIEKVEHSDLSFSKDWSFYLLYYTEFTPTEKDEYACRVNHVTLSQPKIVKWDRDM

[1] = target: recombinant human IL1RAP ECD (human) (UniProt Q9NPH3); assay: SPR (ProteOn)
Sequence of recombinant human IL1RAP ECD (human) (Q9NPH3 other isoform, or with tags, fused parts or gaps): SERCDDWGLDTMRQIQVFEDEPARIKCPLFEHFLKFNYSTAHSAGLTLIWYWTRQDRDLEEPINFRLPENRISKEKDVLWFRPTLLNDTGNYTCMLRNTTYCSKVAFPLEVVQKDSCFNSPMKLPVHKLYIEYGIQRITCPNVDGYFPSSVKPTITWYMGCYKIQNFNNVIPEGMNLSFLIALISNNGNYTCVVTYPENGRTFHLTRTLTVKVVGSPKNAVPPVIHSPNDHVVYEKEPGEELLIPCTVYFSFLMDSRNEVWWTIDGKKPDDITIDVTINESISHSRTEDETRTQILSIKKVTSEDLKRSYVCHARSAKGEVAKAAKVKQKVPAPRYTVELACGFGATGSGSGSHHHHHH

Sequence of human FcγRI (human) (P12314 16-292 limits assumed): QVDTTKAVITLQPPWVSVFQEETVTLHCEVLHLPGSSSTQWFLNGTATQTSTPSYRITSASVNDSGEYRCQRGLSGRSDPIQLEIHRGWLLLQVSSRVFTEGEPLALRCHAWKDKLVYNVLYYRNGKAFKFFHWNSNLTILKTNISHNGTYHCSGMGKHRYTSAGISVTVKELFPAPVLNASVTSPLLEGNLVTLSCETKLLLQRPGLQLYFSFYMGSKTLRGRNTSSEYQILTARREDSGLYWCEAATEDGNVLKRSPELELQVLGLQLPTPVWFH

Substance	IC50 (read off the curve) (human FcγRI (human)) [nM]	IC50 (read off the curve) (human FcRn (human)) [nM]	Kd [1]	koff [1]	kon [1]
wild type hIgG1 (antibody)	3	90	–	–	–
Human IgG4-PAA isotype control (antibody)	–	200	–	–	–
anti-human/cyno IL1RAP, mouse IgG1, R&D #MAB676 (antibody)	–	–	1.42 nM and 1.21 nM	0.000369 s⁻¹ and 0.000336 s⁻¹	260000 M⁻¹ s⁻¹ and 277000 M⁻¹ s⁻¹
